Measured values as given in IntAct's records for PubMed 22826121.

B1: Protein KASH5 (Mus musculus), Q80VJ8 (parent)
chain: MHSILRSSLSSREALRMRQLKGLRKERPGRHPLGVRLRAIWTSFLFPNPPHSGGKLRASTAAVEEHQEWSMDLPEGQAGGPTAQMYLWEQPEEASSRPLLSLEEQILNSTFEACDPHKTGTVTVAHLLAYLEAVTGQGPQDVRLQTLARSLDPYGEGAGATVELDTFLVVMRDWIAACQLQGGLERAEETAYEGALASPHLPSVCPEAEESANLESFGGEDPRPEGPATAELLSNLEDLELSNRRLAGENAKLQRSVETAEEGSARLGEEITALRKQLRSTQQALQVAKALDEELEDLKTLAKSLEEQNRSLMAQARHTEKEQQHLAAEVETLQEENEKLLAERDGVKRRSEELATEKDALKRQLCECERLICQREAVLSERTRHAESLARTLEEYRTTTQELRQEISNLEEQLSQSQEGPEELLEGAEAGRVGWIMALPPSLDLEIQAIRQEQDVASAGLSSPLYGVWQWEEVEPEPEPEPEPEPEPEPQEVEFPSEDPARQQTDLQREPVRALEGSRAPCLRLSRSQEEEEEEEESWVLADPSSPLGTYHHKLAPGSSRESCHIVPEMHQALMPVVRDLVPVERSRTQHCLHPQHSPGIRISQHPLVPTPVLGLLLLLLLSILLFSQSPPPTWPHLQLYYLQPPPV
partner: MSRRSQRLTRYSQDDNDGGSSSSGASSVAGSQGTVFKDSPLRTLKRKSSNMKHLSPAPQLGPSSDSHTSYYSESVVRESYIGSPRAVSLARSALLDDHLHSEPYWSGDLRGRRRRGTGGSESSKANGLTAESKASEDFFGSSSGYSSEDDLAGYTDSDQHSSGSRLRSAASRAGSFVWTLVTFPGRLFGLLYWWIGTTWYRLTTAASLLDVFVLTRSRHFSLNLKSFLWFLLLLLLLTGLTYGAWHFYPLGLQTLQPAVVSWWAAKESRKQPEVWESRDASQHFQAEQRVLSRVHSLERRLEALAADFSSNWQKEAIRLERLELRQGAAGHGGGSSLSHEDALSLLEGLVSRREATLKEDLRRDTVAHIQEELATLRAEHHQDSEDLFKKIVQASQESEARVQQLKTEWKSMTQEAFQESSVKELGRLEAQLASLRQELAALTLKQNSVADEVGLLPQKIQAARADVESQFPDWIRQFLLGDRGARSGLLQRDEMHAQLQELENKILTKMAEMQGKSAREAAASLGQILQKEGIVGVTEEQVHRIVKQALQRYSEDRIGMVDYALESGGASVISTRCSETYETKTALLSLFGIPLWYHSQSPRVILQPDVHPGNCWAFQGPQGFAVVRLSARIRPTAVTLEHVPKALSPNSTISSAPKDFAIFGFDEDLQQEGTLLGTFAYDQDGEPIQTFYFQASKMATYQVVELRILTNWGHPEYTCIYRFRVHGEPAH
B2: Protein KASH5 (Mus musculus), Q80VJ8 (parent)
chain: B1 chain
B3: Protein KASH5 (Mus musculus), Q80VJ8 (parent)
chain: B1 chain
partner: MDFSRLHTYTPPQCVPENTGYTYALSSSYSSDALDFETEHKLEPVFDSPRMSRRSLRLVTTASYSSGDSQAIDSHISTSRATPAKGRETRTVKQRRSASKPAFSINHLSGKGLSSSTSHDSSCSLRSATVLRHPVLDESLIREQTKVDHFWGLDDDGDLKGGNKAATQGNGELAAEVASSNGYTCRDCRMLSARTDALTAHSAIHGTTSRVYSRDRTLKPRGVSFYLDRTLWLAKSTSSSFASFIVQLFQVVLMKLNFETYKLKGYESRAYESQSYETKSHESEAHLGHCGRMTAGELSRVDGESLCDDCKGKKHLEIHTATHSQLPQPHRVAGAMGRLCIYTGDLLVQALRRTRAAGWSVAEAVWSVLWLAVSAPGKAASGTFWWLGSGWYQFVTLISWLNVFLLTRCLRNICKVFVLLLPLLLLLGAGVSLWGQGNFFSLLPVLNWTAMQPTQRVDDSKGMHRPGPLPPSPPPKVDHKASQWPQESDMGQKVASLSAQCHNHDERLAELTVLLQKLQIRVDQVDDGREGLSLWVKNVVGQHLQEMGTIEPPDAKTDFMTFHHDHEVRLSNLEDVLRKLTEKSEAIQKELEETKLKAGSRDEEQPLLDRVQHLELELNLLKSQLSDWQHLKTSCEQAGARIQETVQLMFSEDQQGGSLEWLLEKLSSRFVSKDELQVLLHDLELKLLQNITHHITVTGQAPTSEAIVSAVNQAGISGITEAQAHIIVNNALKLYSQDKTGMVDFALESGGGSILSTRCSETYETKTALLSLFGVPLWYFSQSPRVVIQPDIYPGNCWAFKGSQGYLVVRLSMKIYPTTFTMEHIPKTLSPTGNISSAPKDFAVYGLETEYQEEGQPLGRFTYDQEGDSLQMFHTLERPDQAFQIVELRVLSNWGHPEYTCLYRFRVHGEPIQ

Variants of: B1
Details: with sun2_mouse Sun2, Q8BJS4

effect of a mutation on the interaction	Variant
disrupting interaction strength	P645A;P646A;P647A

Variants of: B2
Details: with sun1_human SUN1, O94901
Sequence of sun1_human SUN1, O94901 (O94901 whole entry): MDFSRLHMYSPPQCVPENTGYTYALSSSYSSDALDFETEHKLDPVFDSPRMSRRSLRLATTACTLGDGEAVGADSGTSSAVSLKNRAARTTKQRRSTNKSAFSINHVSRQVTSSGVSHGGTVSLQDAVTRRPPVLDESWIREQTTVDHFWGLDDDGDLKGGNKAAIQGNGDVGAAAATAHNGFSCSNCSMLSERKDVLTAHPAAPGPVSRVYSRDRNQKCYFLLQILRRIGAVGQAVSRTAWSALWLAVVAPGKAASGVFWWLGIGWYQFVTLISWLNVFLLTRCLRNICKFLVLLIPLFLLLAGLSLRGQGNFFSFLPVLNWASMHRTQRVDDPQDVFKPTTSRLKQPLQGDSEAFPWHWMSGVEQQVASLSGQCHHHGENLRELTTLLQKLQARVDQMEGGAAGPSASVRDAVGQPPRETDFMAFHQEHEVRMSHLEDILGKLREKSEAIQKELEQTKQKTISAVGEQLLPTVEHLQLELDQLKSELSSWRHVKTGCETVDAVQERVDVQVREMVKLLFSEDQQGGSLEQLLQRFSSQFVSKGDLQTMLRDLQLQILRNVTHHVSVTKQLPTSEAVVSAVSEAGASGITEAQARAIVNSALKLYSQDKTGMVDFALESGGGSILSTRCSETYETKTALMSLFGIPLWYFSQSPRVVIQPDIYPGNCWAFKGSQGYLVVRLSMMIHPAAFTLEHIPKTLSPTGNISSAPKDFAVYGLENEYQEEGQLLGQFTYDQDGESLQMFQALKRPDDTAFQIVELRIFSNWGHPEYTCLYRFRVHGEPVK

effect of a mutation on the interaction	Variant
disrupting interaction	P645A;P646A;P647A

Variants of: B3
Details: with sun1_mouse Sun1, Q9D666

effect of a mutation on the interaction	Variant
disrupting interaction strength	P645A;P646A;P647A
